Source: publication PMC9242090 (The Journal of Experimental Medicine, 2022)
No end group written: not given here.

T1: Peptide 29 (Pep29) (Plasmodium falciparum 3D7, also: biotin, position not given here)
T1 chain: NANPNANPNANPNAN


Molecular target: T1, Peptide 29 (Pep29)
Test: BLI

| Binder | binding result |
| --- | --- |
| CIS43_Var11 Fab (Fab, V domains shown) VH: QRQLVQSGAEVKKPGASVKVSCKASGYTFTSYAIHWVRQAPGQRLEWMGWIKAGNGNTRYSQKFQDRVTITRDTSTTTAYMELSSLRSEDTAVYYCALLTVLTPDDAFDIWGQGTMVTVSS VL: not shown | binds |
| CIS43_Var18 Fab (Fab, V domains shown) VH: QRQLVQSGAEVKKPGASVKVSCKASGYTFTSYAIHWVRQAPGQRLEWMGWIKAGNGNTRYSQKFQDRVTITRDTSTTTAYMELSSLRSEDTAVYYCVLLTVLTPDDAFDIWGQGTMVTVSS VL: not shown | binds |
